Reference: US20140370563A1, “COMPOSITIONS AND METHODS FOR THE RELIEF OF INHIBITION OF ALDEHYDE DECARBONYLASE” (priority 2011, published 2014)
Entries after “also recorded” stand apart in the source; their conditions may differ.

Assays:
[1] = target: T1, aldehyde decarbonylase (ADC) (Prochlorococcus marinus, UniProt Q7V6D4); experiment: decarbonylase assay (octadecanal to alkane, GC/MS); type: biochemical
T1 construct: made in house; host or cells: E. coli BL21 (DE3) Gold
T1 sequence (Q7V6D4 1-243): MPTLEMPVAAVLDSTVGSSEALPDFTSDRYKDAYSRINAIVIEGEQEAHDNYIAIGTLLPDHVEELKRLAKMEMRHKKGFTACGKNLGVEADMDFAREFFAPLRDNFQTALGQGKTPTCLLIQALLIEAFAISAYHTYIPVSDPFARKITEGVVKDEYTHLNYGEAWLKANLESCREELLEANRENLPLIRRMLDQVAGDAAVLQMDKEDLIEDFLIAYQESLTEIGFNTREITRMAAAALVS
Method: (§1) Typical decarbonylase assays were 0.25 mL and contained 25 mM Tris-Cl pH 7.5, 0.1% Triton X-100, 1 mM DTT, 50 μg/mL maize root ferredoxin and 1 U/mL anabaena vegetative ferredoxin reductase (Cahoon et al. 1997, PNAS 94:4872-4877.), 2 mM NADPH, 200 μM octadecanal, and between 0.2-5 μM ADC or CAT-ADC. A 20 mM octadecanal stock was freshly prepared by sonicating powder in 10% Triton X-100. Octadecanal was obtained from ISCA technologies. When indicated catalase (Sigma C-9322) was added to a final concentration of 4 mg/mL from a 20 mg/mL stock dissolved in 100 mM PIPES pH 6.0. For assays performed in 100% oxygen a reaction master mix without NADPH and a separate NADPH solution were prepared by repeated purging of the sample cell with 100% O2 and vacuum with the use of a Schlenk line. Reactions were initialed by addition of either enzyme, substrate, or NADPH and were incubated at 37° C. and stopped by the addition of an equal volume of ethyl acetate. The organic phase was separated by GC/MS on an HP-5 ms column with oven temperature increasing from 75° C. to 320° C. at 40° C./min with a flow rate of 1.3 ml/min. Substrate and product were identified by comparison to authentic standards.

[2] = substrate: CCCCCCCC/C=C\CCCCCCCC=O; experiment: Decarbonylase assay: kinetics of aldehyde decarbonylase activity with aldehyde substrates of different lengths (FIG. 8); recombinant ADC, GenBank CAE21406.1, with N-terminal MGSDKIHHHHHHENLYFQG tag, expressed in E. coli BL21 (DE3) Gold; no mutations stated; type: biochemical, Prochlorococcus marinus; details: other: aldehyde as substrate, typical assay 25 mM Tris-Cl pH 7.5, 0.1% Triton X-100, ferredoxin, ferredoxin reductase, 2 mM NADPH, 37° C., GC/MS
Text: (§2) A catalase transcriptional fusion was produced as described below. […] The Catalase used was Ec catalase (GenBank Accession No. U00092.2) though the present invention is not limited to the use of this particular catalase. The ADC used was Pm ADC (GenBank Accession No. CAE21406.1). The ADC contains a diiron site. ADCs utilizing other metals are also suitable for use. For example, ribonucleotide reductase, which is normally a diiron protein can also use Mn (manganese) (Metallomics, 2011, 3(2):110-120, ePub […] Jan. 25). The catalase and ADC sequences were connected by a 20 amino acid linker: […] [SEQ ID NO: 8]. A 6×His-tag was added to the 3′ end for simplified purification. The recombinant catalase-ADC fusion (hybrid) protein (CAT-ADC or CA) was produced using the T7 expression system in E. coli and was purified using Ni-NTA agarose resin.
(§3) The pSpeedET T7 inducible bacterial expression plasmid containing the coding sequence for Prochlorococcus marinus aldehyde decarbonylase (ADC, GenBank: CAE21406.1 [SEQ ID NO: 1]) fused with an N-terminal MGSDKIHHHHHHENLYFQG [SEQ ID NO: 2] tag as constructed by the Joint Center for Structural Genomics, was obtained from the DNASU plasmid repository. The E. coli catalase (katE GenBank: U00096.2 [SEQ ID NO: 3]) ADC fusion protein (CAT-ADC) was constructed by overlap extension PCR. Primers for catalase were: forward—[…] [SEQ ID NO: 4] and reverse—[…] TTTGTCAATCTTAGG [SEQ ID NO: 5]. Primers for ADC were: forward—[…] TTGAGATGCCT [SEQ ID NO: 6] and reverse—[…] [SEQ ID NO: 7]. The final construct contained catalase followed by a 20 amino acid flexible linker domain ([…] [SEQ ID NO: 8]) (Martin et al 2005, Nature 473:1115-1120.) followed by ADC and finally a C-terminal hexahistidine tag and was cloned into the NdeI and XhoI sites of pET24b.
(§4) E. coli BL21 (DE3) Gold cells containing various plasmids were grown at 37° C. to an OD600 of 0.4, were induced with 0.4 mM IPTG, and were grown for an additional 4 hours at 37° C. for ADC or 30° C. for CAT-ADC. Cell pellets were suspended in 20 mM Tris-Cl pH 7.5, 150 mM NaCl, 20 mM imidazole, 5 mM MgCl2, and 0.1 mg/mL DNase and were lysed using a French pressure cell. Cellular debris was removed by centrifugation at 40,000×g for 20 min. Recombinant proteins were purified from the soluble fraction with Ni-NTA resin (Qiagen). Wash and elution buffers were 20 mM Tris-Cl pH 7.5, 300 mM NaCl, and 25 or 250 mM imidazole, respectively. Eluted proteins were immediately exchanged into 20 mM HEPES pH 7.8, 200 mM NaCl using PD-10 desalting columns. Protein concentration was determined with Bradford Assay (Sigma).
as §1

[3] = substrate: CCCCCCCC=O; experiment: as above; type: biochemical, Prochlorococcus marinus; details: other: aldehyde as substrate, typical assay 25 mM Tris-Cl pH 7.5, 0.1% Triton X-100, ferredoxin, ferredoxin reductase, 2 mM NADPH, 37° C., GC/MS
Text: as §2, §3, §4, §1

[4] = substrate: CCCCCCCCCC=O; experiment: as above; type: biochemical, Prochlorococcus marinus; details: other: aldehyde as substrate, typical assay 25 mM Tris-Cl pH 7.5, 0.1% Triton X-100, ferredoxin, ferredoxin reductase, 2 mM NADPH, 37° C., GC/MS
Text: as §2, §3, §4, §1

[5] = substrate: CCCCCCCCCCCC=O; experiment: as above; type: biochemical, Prochlorococcus marinus; details: other: aldehyde as substrate, typical assay 25 mM Tris-Cl pH 7.5, 0.1% Triton X-100, ferredoxin, ferredoxin reductase, 2 mM NADPH, 37° C., GC/MS
Text: as §2, §3, §4, §1

[6] = substrate: CCCCCCCCCCCCCC=O; experiment: as above; type: biochemical, Prochlorococcus marinus; details: other: aldehyde as substrate, typical assay 25 mM Tris-Cl pH 7.5, 0.1% Triton X-100, ferredoxin, ferredoxin reductase, 2 mM NADPH, 37° C., GC/MS
Text: as §2, §3, §4, §1

[7] = substrate: CCCCCCCCCCCCCCCC=O; experiment: as above; type: biochemical, Prochlorococcus marinus; details: other: aldehyde as substrate, typical assay 25 mM Tris-Cl pH 7.5, 0.1% Triton X-100, ferredoxin, ferredoxin reductase, 2 mM NADPH, 37° C., GC/MS
Text: as §2, §3, §4, §1

[8] = substrate: CCCCCCCCCCCCCCCCCC=O; experiment: as above; type: biochemical, Prochlorococcus marinus; details: other: aldehyde as substrate, typical assay 25 mM Tris-Cl pH 7.5, 0.1% Triton X-100, ferredoxin, ferredoxin reductase, 2 mM NADPH, 37° C., GC/MS
Text: as §2, §3, §4, §1

[9] = target: T1, aldehyde decarbonylase (ADC); details: in the absence of catalase; Warui et al. 2011; cited from earlier work

With `OO` [H2O2, hydrogen peroxide, reference compound] as the molecule, how does the “inhibition of ADC by H2O2 in low oxygen atmosphere” value ([1]; 4% (50 μM) atmosphere) read?
The value was “enhanced”.

What about the “inhibition of ADC by H2O2 in oxygen atmosphere” value ([1]; 100% O2 (1250 μM) atmosphere, FIG. 2) of the same molecule?
Its value is “lessened”.

What about the “inhibition of ADC activity by H2O2” value ([1]; H2O2 added to decarbonylase assays, FIG. 1A / FIG. 2) of the same molecule?
Its value is “selectively inhibited; also recorded: increasing inhibition”.

B1: catalase: catalase enzyme (Sigma C-9322) added at 4 mg/mL; converts hydrogen peroxide to water and oxygen (protein, UniProt P00432 2-527, looked up)
Catalase: ADNRDPASDQMKHWKEQRAAQKPDVLTTGGGNPVGDKLNSLTVGPRGPLLVQDVVFTDEMAHFDRERIPERVVHAKGAGAFGYFEVTHDITRYSKAKVFEHIGKRTPIAVRFSTVAGESGSADTVRDPRGFAVKFYTEDGNWDLVGNNTPIFFIRDALLFPSFIHSQKRNPQTHLKDPDMVWDFWSLRPESLHQVSFLFSDRGIPDGHRHMNGYGSHTFKLVNANGEAVYCKFHYKTDQGIKNLSVEDAARLAHEDPDYGLRDLFNAIATGNYPSWTLYIQVMTFSEAEIFPFNPFDLTKVWPHGDYPLIPVGKLVLNRNPVNYFAEVEQLAFDPSNMPPGIEPSPDKMLQGRLFAYPDTHRHRLGPNYLQIPVNCPYRARVANYQRDGPMCMMDNQGGAPNYYPNSFSAPEHQPSALEHRTHFSGDVQRFNSANDDNVTQVRTFYLKVLNEEQRKRLCENIAGHLKDAQLFIQKKAVKNFSDVHPEYGSRIQALLDKYNEEKPKNAVHTYVQHGSHLSAREKANL
For B1, which “relief of inhibition by catalase in all electron transport systems studied” value ([1]; Maize FNR/anabaena Fd, Spinach FNR/ferredoxin, PMS/NADH, FIG. 10) is on record?
Its value is “relieves the inhibition”.

And the “relief of H2O2 inhibition of ADC by added catalase” value ([1]; catalase added, 0, 1 or 10 mM H2O2 (FIG. 3), FIG. 1B)?
Its value is “restoration of ADC activity; also recorded: effective in overcoming the H2O2 induced inhibition of ADC”.

What about the “turnovers of the ADC reaction in the presence of catalase” value ([1]; excess aldehyde substrate, NADPH, ferredoxin NADPH reductase and ferredoxin, 16 hrs (FIG. 9)) of the same molecule?
Its value is “greater than 150 turnovers”.

B2: aldehyde decarbonylase (ADC) (Prochlorococcus marinus str. MIT 9313) (protein)
chain: T1 sequence (Q7V6D4 1-243)
notes: … (His6 tag) (N); made in house; host or cells: E. coli BL21 (DE3) Gold
With B2 as the molecule, how does the Km [2] read?
The Km was 44.4 ± 7.2 µM.

And the Km [3]?
The Km was 27.7 ± 9.9 µM.

What about the Km [4] of the same molecule?
Its Km is 29.5 ± 6.2 µM.

What about the Km [5] of the same molecule?
The Km was 45.3 ± 18.5 µM.

What about the Km [6] of the same molecule?
Its Km is 18.9 ± 1.7 µM.

And the Km [7]?
Its Km is 30.1 ± 4.2 µM.

What about the Km [8] of the same molecule?
The Km was 41.3 ± 4.8 µM.

B3: ADC: Prochlorococcus marinus aldehyde decarbonylase, GenBank CAE21406.1, N-terminal His tag (protein, UniProt Q7V6D4 1-243, looked up)
Aldehyde decarbonylase: T1 sequence (Q7V6D4 1-243)
modifications: N-terminal His tag
notes: Prochlorococcus marinus aldehyde decarbonylase, GenBank CAE21406.1, N-terminal His tag
For B3, which “sensitivity of decarbonylase activity to H2O2 inhibition” value ([1]; 200 μM substrate, 1 mM H2O2 added, FIG. 6A) is on record?
Its value is “inhibited by H2O2”.

And the “decarbonylase activity with or without added catalase” value ([1]; 200 μM substrate, excess NADPH, ferredoxin, FNR, FIG. 6A)?
Its value is “highest activity only when catalase was added”.

What about the “time after which ADC activity was inhibited” value ([1]; without catalase, FIG. 1B) of the same molecule?
The value was “about 15 min”.

What about the “turnovers until ADC activity was inhibited” value ([1]; without catalase, FIG. 1B) of the same molecule?
Its value is “about 3 turnovers”.

And the “turnovers of ADC before it becomes inactive” value [9]?
Its value is “approximately three”.
